This is an account of results in the nanobody polyreactivity screen of Harvey et al. (2022).

This data set can be described thus: yeast display, Sf9 membrane polyspecificity reagent, FACS + sequencing; frameworks hold sequencing errors. The gist of the method:
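A nanobody's polyreactivity label depends on the gate it was sorted from. Yeast display cells were stained with 10% biotinylated, detergent-solubilized Sf9 membrane reagent for 1 hour at 4 °C, enriched on streptavidin microbeads and sorted by FACS. The low and high (top ~1%) gates were set on anti-HA fluorescence for expression and streptavidin fluorescence for reagent binding.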
With “QVQLVESGGGLVQAGGSLRLSCAASGFIFGGYAMGWYRQAPGKERELVAAISRSGGSTYYADSVKGRFTISRDNAKNTVDLQINSLKPEDTAVYYCYAVTRRQGFNYWGQGTQVTVSS”, the “polyreactivity (PSR sort gate)” value was “high polyreactivity”.
As for “QVQLVESGGGLVQAGGSLRLSCAASGFIFGGYAMGWYRQAPGKERELVAAISYGGGSTYYADSVNGRFTISRYNAKNTVYLQMNSLKPEDTAVYYCAADIPGYRYTGYRRGYWGQGTQVTVSS”, the “polyreactivity (PSR sort gate)” value is listed as “high polyreactivity”.
As to “QVQLVESGGGLVQAGGSLRLSCAASGFIFGHNAMGWYRQAPGKERELVADITWSGGSTYYADSVKGRFTISRDNAKNTVYLQMNSLKPEDTAVYYCNARGRASATGRRGRPDPFGYWGQGTQVTVSS”, the “polyreactivity (PSR sort gate)” value is on record as “high polyreactivity”.
To “QVQLVESGGGLVQAGGSLRLSCAASGFIFGHNAMGWYRQAPGKQRELVAAITYSGGSTYYADSVKGRFTISRDNAKNTVYLQMNSLKPEDTAVSYSAASNQWSSTYLTYGYYYWGQGTQVTVSS” belongs “low polyreactivity”.
In the case of “QVQLVESGGGLVQAGGSLRLSCAASGFIFGKYAMGWYRQAPRKERELGAAISKSGGSTYYADSVKGRFTISRDNAKNTVYLQMNSLKPEDTAVYYCAARSLGHYGSWGQGTQVTVSS”, the “polyreactivity (PSR sort gate)” value is reported as “high polyreactivity”.
With “QVQLVESGGGLVQAGGSLRLSCAASGFIFGLYAMGWYRQAPGKETELVATISWDGGSTYYADSVKGRFTISRDNAKNTVYLQMNSLKPEDTAVYYCAATYLYRSPYVPMDYWGQGTQVTVSS”, the “polyreactivity (PSR sort gate)” value was “low polyreactivity”.
Consider “QVQLVESGGGLVQAGGSLRLSCAASGFIFGLYDMGWDRQAPGKERELVATISDSGGDTYYSDSVKGRFTISRDNAKNTVYLQMNSMKPEDTAVYYCAAKYVYGRGIRAYDYWVQGTQVTVSS”, for which the “polyreactivity (PSR sort gate)” value is “high polyreactivity”.
To “QVQLVESGGGLVQAGGSLRLSCAASGFIFGNYAMGWYRQAPGKERELVATITRRGGRTYYADSVKGRFTISRDIAKNTVYLQMTSLKPEDTAVYYCNARPSRWAREGYWGQGTQVTVSS” belongs “high polyreactivity”.
As to “QVQLVESGGGLVQAGGSLRLSCAASGFIFGPNAMGWYRQAPGKERELVAAITLSGGSTYYADSVKGRFTISRDNAKNTVYLQMNSLKPEDTAVYYCATTYYHNYLLYGYWGQGTQVTVSS”, the “polyreactivity (PSR sort gate)” value is reported as “low polyreactivity”.
To “QVQLVESGGGLVQAGGSLRLSCAASGFIFGQYAMGWYRQAPGKERELVATINRSGGSTYYADSVKGRFTISRDNAKNTVYLQMNSLKPEDTAVYYCAKGPRISSSLRYSAYWKMNYWGQGTQVTVSS” belongs “high polyreactivity”; to “QVQLVESGGGLVQAGGSLRLSCAASGFIFGRYAMGWYRQAPGKERELVAAISSGDDTDYADSVKGRFTISRYNAKNTVYLLMNSLIPEDTAVYYCARSRFWSPVNYRRTIEFDSWGQGTQVTVSS”, “low polyreactivity”.
On to “QVQLVESGGGLVQAGGSLRLSCAASGFIFGRYAMGWYRQAPGKERELVAAITSGGRTYYADSVKGRFTISRDNAKNTVYLQMNSLKPEDTAVYYCAKRVGRYWTAGYYWGQGTQVTVSS”, for which the “polyreactivity (PSR sort gate)” value is reported as “high polyreactivity”.
For the sequence “QVQLVESGGGLVQAGGSLRLSCAASGFIFGRYTMGWYSQAPGKERELVAAISSRGGSTYYADSVKGRFTISRDNAKNTVYLQMNSLKPEDTAVYYCAADEIYGYDYWGQGTQVTVSS”, the “polyreactivity (PSR sort gate)” value was “high polyreactivity”.
Take “QVQLVESGGGLVQAGGSLRLSCAASGFIFGSIVMGWYRQAPGKERELVAAISKRGGTTYYADSVKGRFTISRDNAKNPVYLQMNSLKPEDTAVYYCAVEWCFRRNGRMDYWGQGTQVTVSS”: the “polyreactivity (PSR sort gate)” value is “high polyreactivity”.
To “QVQLVESGGGLVQAGGSLRLSCAASGFIFGSYAMGWYRQAPGKERELVAAITRSGGNTYYADSVKVRFTISRDNAKNTVYLQMNSLKPEDTAVYYCAAYSGYWYDYWGQGTQVTVSS” belongs “high polyreactivity”; to “QVQLVESGGGLVQAGGSLRLSCAASGFIFGTYAMGWYIQAPGKERELVAAISTGATYYADSVKGRFTISRDNAKNTVYLQMNSLKPEDTAVYYCAAPRTYYLRYRWYLYEGDYWGQGTQVTVTS”, “low polyreactivity”.
